Reference: the supplement of paper PMC5998384

Experiments:
HeLa Kyoto [1] = assay: solubility change mitosis vs G1/S (difference of NP-40 vs SDS log2 ratios) (log2 ratio difference); higher = more soluble in mitosis
HeLa Kyoto [2] = assay: solubility in G1/S (NP-40 vs SDS abundance) (log2 ratio); higher = more soluble; conditions: cell cycle stage: G1/S
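For solubility change mitosis vs G1/S (difference of NP-40 vs SDS log2 ratios) in this document: synchronized HeLa Kyoto cells (double thymidine block for G1/S, nocodazole release for mitosis), protein amounts in NP-40 versus SDS lysates quantified by mass spectrometry, three biological replicates.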
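For solubility in G1/S (NP-40 vs SDS abundance) in this document: HeLa Kyoto cells arrested at G1/S by double thymidine block, proteins quantified by TMT10plex mass spectrometry in mild NP-40 versus SDS extracts, three biological replicates.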

Row | Sequence | solubility change mitosis (log2) (HeLa Kyoto [1]) | solubility in G1/S (log2) (HeLa Kyoto [2])
1 | MGAAAAEADRTLFVGNLETKVTEELLFELFHQAGPVIKVKIPKDKDGKPKQFAFVNFKHEVSVPYAMNLLNGIKLYGRPIKIQFRSGSSHAPQDVSLSYPQHHVGNSSPTSTSPSRYERTMDNMTSSAQIIQRSFSSPENFQRQAVMNSALRQMSYGGKFGSSPLDQSGFSPSVQSHSHSFNQSSSSQWRQGTPSSQRKVRMNSYPYLADRHYSREQRYTDHGSDHHYRGKRDDFFYEDRNHDDWSHDYDNRRDSSRDGKWRSSRH [RBM7] | 0.189 | 0.568
2 | MGLEDEQKMLTESGDPEEEEEEEEELVDPLTTVREQCEQLEKCVKARERLELCDERVSSRSHTEEDCTEELFDFLHARDHCVAHKLFNNLK [UQCRH] | 0.641 | -0.528
3 | MGLYGQACPSVTSLRMTSELESSLTSMDWLPQLTMRAAIQKSDATQNAHGTGISKKNALLDPNTTLDQEEVQQHKDGKPPYSYASLITFAINSSPKKKMTLSEIYQWICDNFPYYREAGSGWKNSIRHNLSLNKCFLKVPRSKDDPGKGSYWAIDTNPKEDVLPTRPKKRARSVERASTPYSIDSDSLGMECIISGSASPTLAINTVTNKVTLYNTDQDGSDSPRSSLNNSLSDQSLASVNLNSVGSVHSYTPVTSHPESVSQSLTPQQQPQYNLPERDKQLLFSEYNFEDLSASFRSLYKSVFEQSLSQQGLMNIPSESSQQSHTSCTYQHSPSSTVSTHPHSNQSSLSNSHGSGLNTTGSNSVAQVSLSHPQMHTQPSPHPPHRPHGLPQHPQRSPHPAPHPQQHSQLQSPHPQHPSPHQHIQHHPNHQHQTLTHQAPPPPQQVSCNSGVSNDWYATLDMLKESCRIASSVNWSDVDLSQFQGLMESMRQADLKNWSLDQVQFADLCSSLNQFFTQTGLIHSQSNVQQNVCHGAMHPTKPSQHIGTGNLYIDSRQNLPPSVMPPPGYPHIPQALSTPGTTMAGHHRAMNQQHMMPSQAFQMRRSLPPDDIQDDFDWDSIV [FOXJ3] | 0.0825 | 0.664
4 | MGMACLTMTEMEGTSTSSIYQNGDISGNANSMKQIDPVLQVYLYHSLGKSEADYLTFPSGEYVAEEICIAASKACGITPVYHNMFALMSETERIWYPPNHVFHIDESTRHNVLYRIRFYFPRWYCSGSNRAYRHGISRGAEAPLLDDFVMSYLFAQWRHDFVHGWIKVPVTHETQEECLGMAVLDMMRIAKENDQTPLAIYNSISYKTFLPKCIRAKIQDYHILTRKRIRYRFRRFIQQFSQCKATARNLKLKYLINLETLQSAFYTEKFEVKEPGSGPSGEEIFATIIITGNGGIQWSRGKHKESETLTEQDLQLYCDFPNIIDVSIKQANQEGSNESRVVTIHKQDGKNLEIELSSLREALSFVSLIDGYYRLTADAHHYLCKEVAPPAVLENIQSNCHGPISMDFAISKLKKAGNQTGLYVLRCSPKDFNKYFLTFAVERENVIEYKHCLITKNENEEYNLSGTKKNFSSLKDLLNCYQMETVRSDNIIFQFTKCCPPKPKDKSNLLVFRTNGVSDVPTSPTLQRPTHMNQMVFHKIRNEDLIFNESLGQGTFTKIFKGVRREVGDYGQLHETEVLLKVLDKAHRNYSESFFEAASMMSKLSHKHLVLNYGVCVCGDENILVQEFVKFGSLDTYLKKNKNCINILWKLEVAKQLAWAMHFLEENTLIHGNVCAKNILLIREEDRKTGNPPFIKLSDPGISITVLPKDILQERIPWVPPECIENPKNLNLATDKWSFGTTLWEICSGGDKPLSALDSQRKLQFYEDRHQLPAPKWAELANLINNCMDYEPDFRPSFRAIIRDLNSLFTPDYELLTENDMLPNMRIGALGFSGAFEDRDPTQFEERHLKFLQQLGKGNFGSVEMCRYDPLQDNTGEVVAVKKLQHSTEEHLRDFEREIEILKSLQHDNIVKYKGVCYSAGRRNLKLIMEYLPYGSLRDYLQKHKERIDHIKLLQYTSQICKGMEYLGTKRYIHRDLATRNILVENENRVKIGDFGLTKVLPQDKEYYKVKEPGESPIFWYAPESLTESKFSVASDVWSFGVVLYELFTYIEKSKSPPAEFMRMIGNDKQGQMIVFHLIELLKNNGRLPRPDGCPDEIYMIMTECWNNNVNQRPSFRDLALRVDQIRDNMAG [JAK2] | 0.0233 | -0.224
5 | MGNRGMEDLIPLVNRLQDAFSAIGQNADLDLPQIAVVGGQSAGKSSVLENFVGRDFLPRGSGIVTRRPLVLQLVNATTEYAEFLHCKGKKFTDFEEVRLEIEAETDRVTGTNKGISPVPINLRVYSPHVLNLTLVDLPGMTKVPVGDQPPDIEFQIRDMLMQFVTKENCLILAVSPANSDLANSDALKVAKEVDPQGQRTIGVITKLDLMDEGTDARDVLENKLLPLRRGYIGVVNRSQKDIDGKKDITAALAAERKFFLSHPSYRHLADRMGTPYLQKVLNQQLTNHIRDTLPGLRNKLQSQLLSIEKEVEEYKNFRPDDPARKTKALLQMVQQFAVDFEKRIEGSGDQIDTYELSGGARINRIFHERFPFELVKMEFDEKELRREISYAIKNIHGIRTGLFTPDMAFETIVKKQVKKIREPCLKCVDMVISELISTVRQCTKKLQQYPRLREEMERIVTTHIREREGRTKEQVMLLIDIELAYMNTNHEDFIGFANAQQRSNQMNKKKTSGNQDEILVIRKGWLTINNIGIMKGGSKEYWFVLTAENLSWYKDDEEKEKKYMLSVDNLKLRDVEKGFMSSKHIFALFNTEQRNVYKDYRQLELACETQEEVDSWKASFLRAGVYPERVGDKEKASETEENGSDSFMHSMDPQLERQVETIRNLVDSYMAIVNKTVRDLMPKTIMHLMINNTKEFIFSELLANLYSCGDQNTLMEESAEQAQRRDEMLRMYHALKEALSIIGDINTTTVSTPMPPPVDDSWLQVQSVPAGRRSPTSSPTPQRRAPAVPPARPGSRGPAPGPPPAGSALGGAPPVPSRPGASPDPFGPPPQVPSRPNRAPPGVPSRSGQASPSRPESPRPPFDL [DNM1] | -0.0969 | 0.233
6 | MGPKRRQLTFREKSRIIQEVEENPDLRKGEIARRFNIPPSTLSTILKNKRAILASERKYGVASTCRKTNKLSPYDKLEGLLIAWFQQIRAAGLPVKGIILKEKALRIAEELGMDDFTASNGWLDRFRRRHGVVSCSGVARARARNAAPRTPAAPASPAAVPSEGSGGSTTGWRAREEQPPSVAEGYASQDVFSATETSLWYDFLPDQAAGLCGGDGRPRQATQRLSVLLCANADGSEKLPPLVAGKSAKPRAGQAGLPCDYTANSKGGVTTQALAKYLKALDTRMAAESRRVLLLAGRLAAQSLDTSGLRHVQLAFFPPGTVHPLERGVVQQVKGHYRQAMLLKAMAALEGQDPSGLQLGLTEALHFVAAAWQAVEPSDIAACFREAGFGGGPNATITTSLKSEGEEEEEEEEEEEEEEGEGEEEEEEGEEEEEEGGEGEELGEEEEVEEEGDVDSDEEEEEDEESSSEGLEAEDWAQGVVEAGGSFGAYGAQEEAQCPTLHFLEGGEDSDSDSEEEDDEEEDDEDEDDDDDEEDGDEVPVPSFGEAMAYFAMVKRYLTSFPIDDRVQSHILHLEHDLVHVTRKNHARQAGVRGLGHQS [CENPB] | -0.105 | -0.711
7 | MGQCVTKCKNPSSTLGSKNGDREPSNKSHSRRGAGHREEQVPPCGKPGGDILVNGTKKAEAATEACQLPTSSGDAGRESKSNAEESSLQRLEELFRRYKDEREDAILEEGMERFCNDLCVDPTEFRVLLLAWKFQAATMCKFTRKEFFDGCKAISADSIDGICARFPSLLTEAKQEDKFKDLYRFTFQFGLDSEEGQRSLHREIAIALWKLVFTQNNPPVLDQWLNFLTENPSGIKGISRDTWNMFLNFTQVIGPDLSNYSEDEAWPSLFDTFVEWEMERRKREGEGRGALSSGPEGLCPEEQT [DCUN1D3] | -0.131 | 0.0421
8 | MGSAFERVVRRVVQELDHGGEFIPVTSLQSSTGFQPYCLVVRKPSSSWFWKPRYKCVNLSIKDILEPDAAEPDVQRGRSFHFYDAMDGQIQGSVELAAPGQAKIAGGAAVSDSSSTSMNVYSLSVDPNTWQTLLHERHLRQPEHKVLQQLRSRGDNVYVVTEVLQTQKEVEVTRTHKREGSGRFSLPGATCLQGEGQGHLSQKKTVTIPSGSTLAFRVAQLVIDSDLDVLLFPDKKQRTFQPPATGHKRSTSEGAWPQLPSGLSMMRCLHNFLTDGVPAEGAFTEDFQGLRAEVETISKELELLDRELCQLLLEGLEGVLRDQLALRALEEALEQGQSLGPVEPLDGPAGAVLECLVLSSGMLVPELAIPVVYLLGALTMLSETQHKLLAEALESQTLLGPLELVGSLLEQSAPWQERSTMSLPPGLLGNSWGEGAPAWVLLDECGLELGEDTPHVCWEPQAQGRMCALYASLALLSGLSQEPH [GSDMD] | -0.218 | 0.121
9 | MGVDFDVKTFCHNLRATKPPYECPVETCRKVYKSYSGIEYHLYHYDHDNPPPPQQTPLRKHKKKGRQSRPANKQSPSPSEVSQSPGREVMSYAQAQRMVEVDLHGRVHRISIFDNLDVVSEDEEAPEEAPENGSNKENTETPAATPKSGKHKNKEKRKDSNHHHHHNVSASTTPKLPEVVYRELEQDTPDAPPRPTSYYRYIEKSAEELDEEVEYDMDEEDYIWLDIMNERRKTEGVSPIPQEIFEYLMDRLEKESYFESHNKGDPNALVDEDAVCCICNDGECQNSNVILFCDMCNLAVHQECYGVPYIPEGQWLCRRCLQSPSRAVDCALCPNKGGAFKQTDDGRWAHVVCALWIPEVCFANTVFLEPIDSIEHIPPARWKLTCYICKQRGSGACIQCHKANCYTAFHVTCAQQAGLYMKMEPVRETGANGTSFSVRKTAYCDIHTPPGSARRLPALSHSEGEEDEDEEEDEGKGWSSEKVKKAKAKSRIKMKKARKILAEKRAAAPVVSVPCIPPHRLSKITNRLTIQRKSQFMQRLHSYWTLKRQSRNGVPLLRRLQTHLQSQRNCDQVGRDSEDKNWALKEQLKSWQRLRHDLERARLLVELIRKREKLKRETIKVQQIAMEMQLTPFLILLRKTLEQLQEKDTGNIFSEPVPLSEVPDYLDHIKKPMDFFTMKQNLEAYRYLNFDDFEEDFNLIVSNCLKYNAKDTIFYRAAVRLREQGGAVLRQARRQAEKMGIDFETGMHIPHSLAGDEATHHTEDAAEEERLVLLENQKHLPVEEQLKLLLERLDEVNASKQSVGRSRRAKMIKKEMTALRRKLAHQRETGRDGPERHGPSSRGSLTPHPAACDKDGQTDSAAEESSSQETSKGLGPNMSSTPAHEVGRRTSVLFSKKNPKTAGPPKRPGRPPKNRESQMTPSHGGSPVGPPQLPIMSSLRQRKRGRSPRPSSSSDSDSDKSTEDPPMDLPANGFSGGNQPVKKSFLVYRNDCSLPRSSSDSESSSSSSSSAASDRTSTTPSKQGRGKPSFSRGTFPEDSSEDTSGTENEAYSVGTGRGVGHSMVRKSLGRGAGWLSEDEDSPLDALDLVWAKCRGYPSYPALIIDPKMPREGMFHHGVPIPVPPLEVLKLGEQMTQEAREHLYLVLFFDNKRTWQWLPRTKLVPLGVNQDLDKEKMLEGRKSNIRKSVQIAYHRALQHRSKVQGEQSSETSDSD [BRPF1] | 0.44 | -1.3
10 | MHGHGGYDSDFSDDERCGESSKRKKRTVEDDLLLQKPFQKEKHGKVAHKQVAAELLDREEARNRRFHLIAMDAYQRHTKFVNDYILYYGGKKEDFKRLGENDKTDLDVIRENHRFLWNEEDEMDMTWEKRLAKKYYDKLFKEYCIADLSKYKENKFGFRWRVEKEVISGKGQFFCGNKYCDKKEGLKSWEVNFGYIEHGEKRNALVKLRLCQECSIKLNFHHRRKEIKSKKRKDKTKKDCEESSHKKSRLSSAEEASKKKDKGHSSSKKSEDSLLRNSDEEESASESELWKGPLPETDEKSQEEEFDEYFQDLFL [FRA10AC1] | 0.365 | -0.47
